Reference: patent US20210130436A1

Key:
[1] = molecular target: human CTLA-4, full-length, on transduced CHO cells (human) (UniProt P16410); experiment: flow cytometry, CHO cells expressing huCTLA4, PE anti-human Fc
[2] = molecular target: CD80 expressed on cells (human) (UniProt P33681); experiment: flow cytometry; 20 nM protein on cells expressing CD80
[3] = molecular target: PD-1 expressed on cells (Homo sapiens (Human)) (UniProt Q15116); experiment: flow cytometry; 20 nM protein on cells expressing PD-1
Sequence of PD-1 expressed on cells (Homo sapiens (Human)) (Q15116 21-288): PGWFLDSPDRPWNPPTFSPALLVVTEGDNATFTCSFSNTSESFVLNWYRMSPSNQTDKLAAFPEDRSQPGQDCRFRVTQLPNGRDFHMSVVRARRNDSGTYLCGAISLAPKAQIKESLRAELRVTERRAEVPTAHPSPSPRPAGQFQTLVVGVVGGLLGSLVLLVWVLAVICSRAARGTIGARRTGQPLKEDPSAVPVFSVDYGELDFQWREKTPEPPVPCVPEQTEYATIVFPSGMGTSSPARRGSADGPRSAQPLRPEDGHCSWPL

Sequence of CD80 expressed on cells (human) (P33681 35-288): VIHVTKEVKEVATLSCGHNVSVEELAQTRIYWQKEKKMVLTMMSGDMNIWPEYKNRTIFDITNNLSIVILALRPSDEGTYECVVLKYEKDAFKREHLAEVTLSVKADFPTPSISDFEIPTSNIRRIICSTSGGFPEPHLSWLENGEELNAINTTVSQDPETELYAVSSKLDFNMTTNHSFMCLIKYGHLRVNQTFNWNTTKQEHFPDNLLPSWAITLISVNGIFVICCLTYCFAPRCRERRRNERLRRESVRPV
Sequence of human CTLA-4, full-length, on transduced CHO cells (human) (P16410 36-223): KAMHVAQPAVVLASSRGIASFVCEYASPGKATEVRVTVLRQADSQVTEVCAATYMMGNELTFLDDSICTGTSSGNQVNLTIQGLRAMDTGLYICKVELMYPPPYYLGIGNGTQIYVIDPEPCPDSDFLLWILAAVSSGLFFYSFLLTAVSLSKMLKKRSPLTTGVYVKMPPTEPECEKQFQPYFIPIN

variant CD80 IgV-Fc R29H/E35D/M43V/M47I/I49V (from UniProt P33681 35-141) (Fc fusion)
MFI at 33.3 nM [1]: 4690 MFI

Fc Control
MFI at 20 nM [2]: 132 MFI | MFI at 20 nM [3]: 59 MFI
